Test results taken from US20030171565A1.

Tests used:
[1] = target: protein zero related (PZR), tyrosine-phosphorylated (human) (UniProt O95297); experiment: immuno-depletion of extracts of pervanadate-treated cells with anti-SHP-2, Western blot of the supernatants
[2] = target: protein zero related (PZR), tyrosine-phosphorylated (human) (UniProt O95297); experiment: immuno-depletion of extracts of pervanadate-treated cells with anti-PZR, Western blot of the supernatants

Chain of protein zero related (PZR), tyrosine-phosphorylated (human) (O95297 36-269 limits assumed): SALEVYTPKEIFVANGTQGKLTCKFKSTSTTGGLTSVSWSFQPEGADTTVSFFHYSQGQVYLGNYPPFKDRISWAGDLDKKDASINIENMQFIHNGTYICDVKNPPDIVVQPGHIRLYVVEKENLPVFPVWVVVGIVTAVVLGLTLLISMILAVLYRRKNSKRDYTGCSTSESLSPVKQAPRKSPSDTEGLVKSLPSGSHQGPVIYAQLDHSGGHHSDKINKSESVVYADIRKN

Substance: tyrosine phosphatase SHP-2, native full-length form (from UniProt Q06124 2-593) (enzyme)
- loss of PZR from the extracts on immuno-depletion of SHP-2 [1]: > 90%
- removal of SHP-2 from the extracts on immuno-depletion of PZR [2]: 50%
